Reference: patent US7556927

B1: IK17 human monoclonal IgG Fab (Fab, V domains shown)
VH: EVQLLESGGDLVQPGGSLRLSCIVSGSTFSNYAMSWVRQAPGKGLEWVSAISGTGRSTNYADSVKGRFTISRDNSKDTLYLEMNSLRAEDTATYYCTRTPRIDFWNIANRHFDYWGQGTRVTVSS
VL: VLTQSPATLSLSPGERVTLSCRASQSVSSSLAWYQQKPGQAPRLLIYDASNRATGVPARFSGSGSGTDFTLTISGLEPEDFAVYYCQQRYNWPPKYTFGQGTKLEIRR
B2: scFv IK17 (scFv, part only; not given: linker and His tag, not shown: small tags and cut ends)
scFv, part: MAEVQLLESGGDLVQPGGSLRLSCIVSGSTFSNYAMSWVRQAPGKGLEWVSAISGTGRSTNYADSVKGRFTISRDNSKDTLYLEMNSLRAEDTATYYCTRTPRIDFWNIANRHFDYWGQGTRVTVSSASTKGPSVFPLAPSSKSTSGGTAALGCLVRDYFPEPVTVSWNSGALTSGVHTFPAVLQSSGLYSLSSVVTVPSSVLTQSPATLSLSPGERVTLSCRASQSVSSSLAWYQQKPGQAPRLLIYDASNRATGVPARFSGSGSGTDFTLTISGLEPEDFAVYYCQQRYNWPPKYTFGQGTKLEIRRTVAAPSVFIFPPSDEQLKSGTASVVCLLNNFYPREAKVQWKVG

Experiments:
[1] = molecular target: malondialdehyde low density lipoprotein (MDA-LDL) (UniProt P04114); assay: direct binding and competition assays with affinity purified Fab; method of the affinity value not stated
[2] = molecular target: copper-induced oxidized low density lipoprotein (Cu-OxLDL) (UniProt P04114); assay: cell-based or functional assay
[3] = molecular target: copper-induced oxidized low density lipoprotein (Cu-OxLDL) (UniProt P04114); assay: competition: ^125I-Cu-OxLDL binding to mouse peritoneal macrophages at 4 C, IK17 as competitor
[4] = molecular target: copper-induced oxidized low density lipoprotein (Cu-OxLDL) (UniProt P04114); assay: chemiluminescent ELISA, against Fab IK17 as reference
[5] = molecular target: malondialdehyde low density lipoprotein (MDA-LDL) (UniProt P04114); assay: as above

| Binder | Kd [1] [nM] | degradation of ^125I-Cu-OxLDL by macrophages (TCA-soluble ^125I in medium), % inhibition [2] [%] | % inhibition of binding of ^125I-Cu-OxLDL to macrophages [3] [%] | fold greater binding activity than parent Fab [4] [fold] | fold greater binding activity than parent Fab [5] [fold] |
| --- | --- | --- | --- | --- | --- |
| B1 | 37 | 50 to 65 | 70 to 85 | – | – |
| B2 | – | – | – | 50 to 500 | 50 to 500 |
